This assay deals with latrunculin B bound actin (A. castellani actin monomer) (A. castellani). In words: fluorescence polarisation.

One may read the Kd as the free concentration of one partner at which half of the binding sites on the other are occupied at equilibrium, for simple one-to-one binding.

Take “Spir second WH2 domain (SB) (domain or fragment)”: the Kd was found to be 90 nM.

For the origin of these results see publication PMC4324353.
